# Test results as given in US20250297255A1 (ARSENAL BIOSCIENCES, published 2025).
# T1: Human Solute Carrier Family 34 Member 2 (SLC34A2) (human, UniProt O95436 1-690)
# T1 construct: Endogenous on OVCAR-3 cells; engineered on 786-O cells in the CAR kinetics assay; also called NaPi2b; NPT2B
# T1 sequence: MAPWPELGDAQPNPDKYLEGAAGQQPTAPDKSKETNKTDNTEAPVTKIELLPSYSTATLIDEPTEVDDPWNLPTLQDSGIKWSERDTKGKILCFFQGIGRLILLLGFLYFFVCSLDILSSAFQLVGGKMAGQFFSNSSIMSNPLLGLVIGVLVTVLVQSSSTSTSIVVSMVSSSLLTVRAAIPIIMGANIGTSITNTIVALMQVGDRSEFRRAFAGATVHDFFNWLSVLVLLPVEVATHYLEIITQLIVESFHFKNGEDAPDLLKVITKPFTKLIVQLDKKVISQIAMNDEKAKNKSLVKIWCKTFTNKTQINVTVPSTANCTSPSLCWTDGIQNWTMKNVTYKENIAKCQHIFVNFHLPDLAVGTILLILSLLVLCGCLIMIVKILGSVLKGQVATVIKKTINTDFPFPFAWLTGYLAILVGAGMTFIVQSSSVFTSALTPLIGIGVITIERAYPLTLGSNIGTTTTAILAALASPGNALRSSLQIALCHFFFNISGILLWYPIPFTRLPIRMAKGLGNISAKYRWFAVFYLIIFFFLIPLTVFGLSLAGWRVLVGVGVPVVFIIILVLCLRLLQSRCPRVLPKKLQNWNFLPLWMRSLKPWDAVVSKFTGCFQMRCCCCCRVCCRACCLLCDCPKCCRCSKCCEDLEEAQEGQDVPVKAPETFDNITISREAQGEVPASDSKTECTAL
# T2: ECL-mFc fusion protein (human SLC34A2 ECL2 fused to murine Fc) (human, biotinylated (site not stated))
# T2 construct: The range 234-362 is the ECL2 part counted on human SLC34A2; also called mECL2-Fc protein
# T2 chain: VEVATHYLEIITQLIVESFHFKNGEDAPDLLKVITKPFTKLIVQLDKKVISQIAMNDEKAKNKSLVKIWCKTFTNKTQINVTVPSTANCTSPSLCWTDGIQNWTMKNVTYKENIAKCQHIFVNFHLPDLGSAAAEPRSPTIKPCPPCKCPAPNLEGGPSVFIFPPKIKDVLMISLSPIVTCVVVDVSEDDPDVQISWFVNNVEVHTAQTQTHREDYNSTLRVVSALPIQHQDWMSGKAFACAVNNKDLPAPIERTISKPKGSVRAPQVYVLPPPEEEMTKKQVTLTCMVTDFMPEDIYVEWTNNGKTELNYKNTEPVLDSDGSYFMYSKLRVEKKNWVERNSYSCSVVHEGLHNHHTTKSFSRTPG
# T3: SLC34A2 peptide fragment (peptide 1) (human, biotinylated (site not stated))
# T3 construct: ELISA antigen captured on NeutrAvidin plates; also called SLC34A2 peptide immunogen
# T3 peptide: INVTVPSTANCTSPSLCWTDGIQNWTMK
# How the values were obtained:
# [1] = molecular target: T1, Human Solute Carrier Family 34 Member 2 …; assay: flow cytometry on OVCAR-3 cells (endogenous human SLC34A2), hIgG1/kappa, 8 five-fold dilutions from 133 nM;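 also: binding read as geometric mean fluorescence intensity, with non-transfected HEK293 cells serving as the negative control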
# Source text: Antibodies were screened by standard flow cytometry methods for binding to human OVCAR-3 human ovarian cancer cells which endogenously express human SLC34A2. HEK293 cells were used as a non-transfected negative control. […] Stained cells were then resuspended in cold FACS buffer and analyzed by flow cytometry for geometric mean fluorescent intensity (GeoMFI) and total cell counts on an iQue automated flow cytometer.
# [2] = molecular target: T2, ECL-mFc fusion protein (human SLC34A2 …); assay: ELISA, biotinylated antigen on NeutrAvidin plate, anti-human Fc-HRP
# Procedure: (§1) Briefly, NeutrAvidin plates were coated at 1 μg/ml overnight, washed and incubated with blocking buffer for at least 1 hr. Biotinylated antigens as well as irrelevant antigens were then added at 1 μg/ml for at least 1 hr at RT, followed by rigorous washing. […] After additional wash steps, 3,3′,5,5′-Tetramethylbenzidine (TMB) substrate was added and optical density read using an appropriate plate reader.
# [3] = molecular target: T3, SLC34A2 peptide fragment (peptide 1); assay: as above
# Procedure: as §1
EC50 [1] [nM],Max Signal by flow cytometry [1],binding result [2],binding result [3],Binder
5,277,binds,no binding,"SLC34A2 Ab 4 (antibody, human IgG1, kappa, V domains shown, recombinant hIgG1/kappa from TAP products in Expi293) VH: QVQLLESGGGLVQPGGSLRLSCAASGFTFSSYAMNWVRQAPGKGLEWVSAISGGVGNTYYADSVKGRFTISRDNSKNTLYLQMNSLRAEDTAVYYCTKDGPLWGNYFDYWGRGTLVTVSS VL: EIVLTQSPSSLSASVGDRVTITCRASQGISNYLAWYQQKPGKVPNLLIYTASTLQSGVPSRFSGSGSGTDFTLTISSLQPEDVATYYCQKYNSAPFTFGPGTKVDIKR"
5,305,binds,binds,"SLC34A2 Ab 12 (antibody, V domains shown, recombinant hIgG1/kappa from TAP products in Expi293) VH: QVQLQESGPGLVKPSETLSLTCTVSGGSISSSSYYRGWIRQPPGKGLEWIGSIYYSGSTYYNPSLKSRVTISVDTSKNQFSLKLSSVTAADTAVYYCARHPRGSYGANFDYWGQGTLVTVSS VL: not shown"
16,278,binds,binds,"SLC34A2 Ab 7 (antibody, human IgG1, kappa, V domains shown, recombinant hIgG1/kappa from TAP products in Expi293) VH: QVQLQESGPELVKPSETLSITCTVSGGSISSRSYYWGWIRQPPGKGLEWIGSIYYGGSTYYNPSLKSRVTISADTSKNQFSLKLNSVTAADTAVFYCVRHPAGYSTRWSAFDIWGQGTMVTVSS VL: EIVLTQSPSSLSASVGDRVTITCRASQSISSYLNWYQQKPGRAPELLIYAASSLQSGVPSRFSGSGSGTDFTLTISSLQPEDFATYYCQQSFSSLTFGQGTRLEIKR"
